Target: F-actin prepared by polymerizing β-actin (UniProt P60709 1-375)
Test: co-sedimentation

- Kd: ~10 µM
B1: ZO-1 ABR construct for co-sedimentation (EGFP-ZO-1(1159–1382)-Dual Strep) (domain or fragment, human, UniProt Q07157 1159-1382, looked up)
chain: EQPAPGYDTHGRLRPEAQPHPSAGPKPAESKQYFEQYSRSYEQVPPQGFTSRAGHFEPLHGAAAVPPLIPSSQHKPEALPSNTKPLPPPPTQTEEEEDPAMKPQSVLTRVKMFENKRSASLETKKDVNDTGSFKPPEVASKPSGAPIIGPKPTSQNQFSEHDKTLYRIPEPQKPQLKPPEDIVRSNHYDPEEDEEYYRKQLSYFDRRSFENKPPAHIAASHLSE

From paper PMC7530003 (Developmental cell, 2020)
